Earlier results in article PMC11817637.

Columns and labels:
RyR1 = RyR1 (UniProt P21817)
[1] = target: RyR1 (Oryctolagus cuniculus) (UniProt P11716)
Chain of UniProt P11716 (P11716 whole entry): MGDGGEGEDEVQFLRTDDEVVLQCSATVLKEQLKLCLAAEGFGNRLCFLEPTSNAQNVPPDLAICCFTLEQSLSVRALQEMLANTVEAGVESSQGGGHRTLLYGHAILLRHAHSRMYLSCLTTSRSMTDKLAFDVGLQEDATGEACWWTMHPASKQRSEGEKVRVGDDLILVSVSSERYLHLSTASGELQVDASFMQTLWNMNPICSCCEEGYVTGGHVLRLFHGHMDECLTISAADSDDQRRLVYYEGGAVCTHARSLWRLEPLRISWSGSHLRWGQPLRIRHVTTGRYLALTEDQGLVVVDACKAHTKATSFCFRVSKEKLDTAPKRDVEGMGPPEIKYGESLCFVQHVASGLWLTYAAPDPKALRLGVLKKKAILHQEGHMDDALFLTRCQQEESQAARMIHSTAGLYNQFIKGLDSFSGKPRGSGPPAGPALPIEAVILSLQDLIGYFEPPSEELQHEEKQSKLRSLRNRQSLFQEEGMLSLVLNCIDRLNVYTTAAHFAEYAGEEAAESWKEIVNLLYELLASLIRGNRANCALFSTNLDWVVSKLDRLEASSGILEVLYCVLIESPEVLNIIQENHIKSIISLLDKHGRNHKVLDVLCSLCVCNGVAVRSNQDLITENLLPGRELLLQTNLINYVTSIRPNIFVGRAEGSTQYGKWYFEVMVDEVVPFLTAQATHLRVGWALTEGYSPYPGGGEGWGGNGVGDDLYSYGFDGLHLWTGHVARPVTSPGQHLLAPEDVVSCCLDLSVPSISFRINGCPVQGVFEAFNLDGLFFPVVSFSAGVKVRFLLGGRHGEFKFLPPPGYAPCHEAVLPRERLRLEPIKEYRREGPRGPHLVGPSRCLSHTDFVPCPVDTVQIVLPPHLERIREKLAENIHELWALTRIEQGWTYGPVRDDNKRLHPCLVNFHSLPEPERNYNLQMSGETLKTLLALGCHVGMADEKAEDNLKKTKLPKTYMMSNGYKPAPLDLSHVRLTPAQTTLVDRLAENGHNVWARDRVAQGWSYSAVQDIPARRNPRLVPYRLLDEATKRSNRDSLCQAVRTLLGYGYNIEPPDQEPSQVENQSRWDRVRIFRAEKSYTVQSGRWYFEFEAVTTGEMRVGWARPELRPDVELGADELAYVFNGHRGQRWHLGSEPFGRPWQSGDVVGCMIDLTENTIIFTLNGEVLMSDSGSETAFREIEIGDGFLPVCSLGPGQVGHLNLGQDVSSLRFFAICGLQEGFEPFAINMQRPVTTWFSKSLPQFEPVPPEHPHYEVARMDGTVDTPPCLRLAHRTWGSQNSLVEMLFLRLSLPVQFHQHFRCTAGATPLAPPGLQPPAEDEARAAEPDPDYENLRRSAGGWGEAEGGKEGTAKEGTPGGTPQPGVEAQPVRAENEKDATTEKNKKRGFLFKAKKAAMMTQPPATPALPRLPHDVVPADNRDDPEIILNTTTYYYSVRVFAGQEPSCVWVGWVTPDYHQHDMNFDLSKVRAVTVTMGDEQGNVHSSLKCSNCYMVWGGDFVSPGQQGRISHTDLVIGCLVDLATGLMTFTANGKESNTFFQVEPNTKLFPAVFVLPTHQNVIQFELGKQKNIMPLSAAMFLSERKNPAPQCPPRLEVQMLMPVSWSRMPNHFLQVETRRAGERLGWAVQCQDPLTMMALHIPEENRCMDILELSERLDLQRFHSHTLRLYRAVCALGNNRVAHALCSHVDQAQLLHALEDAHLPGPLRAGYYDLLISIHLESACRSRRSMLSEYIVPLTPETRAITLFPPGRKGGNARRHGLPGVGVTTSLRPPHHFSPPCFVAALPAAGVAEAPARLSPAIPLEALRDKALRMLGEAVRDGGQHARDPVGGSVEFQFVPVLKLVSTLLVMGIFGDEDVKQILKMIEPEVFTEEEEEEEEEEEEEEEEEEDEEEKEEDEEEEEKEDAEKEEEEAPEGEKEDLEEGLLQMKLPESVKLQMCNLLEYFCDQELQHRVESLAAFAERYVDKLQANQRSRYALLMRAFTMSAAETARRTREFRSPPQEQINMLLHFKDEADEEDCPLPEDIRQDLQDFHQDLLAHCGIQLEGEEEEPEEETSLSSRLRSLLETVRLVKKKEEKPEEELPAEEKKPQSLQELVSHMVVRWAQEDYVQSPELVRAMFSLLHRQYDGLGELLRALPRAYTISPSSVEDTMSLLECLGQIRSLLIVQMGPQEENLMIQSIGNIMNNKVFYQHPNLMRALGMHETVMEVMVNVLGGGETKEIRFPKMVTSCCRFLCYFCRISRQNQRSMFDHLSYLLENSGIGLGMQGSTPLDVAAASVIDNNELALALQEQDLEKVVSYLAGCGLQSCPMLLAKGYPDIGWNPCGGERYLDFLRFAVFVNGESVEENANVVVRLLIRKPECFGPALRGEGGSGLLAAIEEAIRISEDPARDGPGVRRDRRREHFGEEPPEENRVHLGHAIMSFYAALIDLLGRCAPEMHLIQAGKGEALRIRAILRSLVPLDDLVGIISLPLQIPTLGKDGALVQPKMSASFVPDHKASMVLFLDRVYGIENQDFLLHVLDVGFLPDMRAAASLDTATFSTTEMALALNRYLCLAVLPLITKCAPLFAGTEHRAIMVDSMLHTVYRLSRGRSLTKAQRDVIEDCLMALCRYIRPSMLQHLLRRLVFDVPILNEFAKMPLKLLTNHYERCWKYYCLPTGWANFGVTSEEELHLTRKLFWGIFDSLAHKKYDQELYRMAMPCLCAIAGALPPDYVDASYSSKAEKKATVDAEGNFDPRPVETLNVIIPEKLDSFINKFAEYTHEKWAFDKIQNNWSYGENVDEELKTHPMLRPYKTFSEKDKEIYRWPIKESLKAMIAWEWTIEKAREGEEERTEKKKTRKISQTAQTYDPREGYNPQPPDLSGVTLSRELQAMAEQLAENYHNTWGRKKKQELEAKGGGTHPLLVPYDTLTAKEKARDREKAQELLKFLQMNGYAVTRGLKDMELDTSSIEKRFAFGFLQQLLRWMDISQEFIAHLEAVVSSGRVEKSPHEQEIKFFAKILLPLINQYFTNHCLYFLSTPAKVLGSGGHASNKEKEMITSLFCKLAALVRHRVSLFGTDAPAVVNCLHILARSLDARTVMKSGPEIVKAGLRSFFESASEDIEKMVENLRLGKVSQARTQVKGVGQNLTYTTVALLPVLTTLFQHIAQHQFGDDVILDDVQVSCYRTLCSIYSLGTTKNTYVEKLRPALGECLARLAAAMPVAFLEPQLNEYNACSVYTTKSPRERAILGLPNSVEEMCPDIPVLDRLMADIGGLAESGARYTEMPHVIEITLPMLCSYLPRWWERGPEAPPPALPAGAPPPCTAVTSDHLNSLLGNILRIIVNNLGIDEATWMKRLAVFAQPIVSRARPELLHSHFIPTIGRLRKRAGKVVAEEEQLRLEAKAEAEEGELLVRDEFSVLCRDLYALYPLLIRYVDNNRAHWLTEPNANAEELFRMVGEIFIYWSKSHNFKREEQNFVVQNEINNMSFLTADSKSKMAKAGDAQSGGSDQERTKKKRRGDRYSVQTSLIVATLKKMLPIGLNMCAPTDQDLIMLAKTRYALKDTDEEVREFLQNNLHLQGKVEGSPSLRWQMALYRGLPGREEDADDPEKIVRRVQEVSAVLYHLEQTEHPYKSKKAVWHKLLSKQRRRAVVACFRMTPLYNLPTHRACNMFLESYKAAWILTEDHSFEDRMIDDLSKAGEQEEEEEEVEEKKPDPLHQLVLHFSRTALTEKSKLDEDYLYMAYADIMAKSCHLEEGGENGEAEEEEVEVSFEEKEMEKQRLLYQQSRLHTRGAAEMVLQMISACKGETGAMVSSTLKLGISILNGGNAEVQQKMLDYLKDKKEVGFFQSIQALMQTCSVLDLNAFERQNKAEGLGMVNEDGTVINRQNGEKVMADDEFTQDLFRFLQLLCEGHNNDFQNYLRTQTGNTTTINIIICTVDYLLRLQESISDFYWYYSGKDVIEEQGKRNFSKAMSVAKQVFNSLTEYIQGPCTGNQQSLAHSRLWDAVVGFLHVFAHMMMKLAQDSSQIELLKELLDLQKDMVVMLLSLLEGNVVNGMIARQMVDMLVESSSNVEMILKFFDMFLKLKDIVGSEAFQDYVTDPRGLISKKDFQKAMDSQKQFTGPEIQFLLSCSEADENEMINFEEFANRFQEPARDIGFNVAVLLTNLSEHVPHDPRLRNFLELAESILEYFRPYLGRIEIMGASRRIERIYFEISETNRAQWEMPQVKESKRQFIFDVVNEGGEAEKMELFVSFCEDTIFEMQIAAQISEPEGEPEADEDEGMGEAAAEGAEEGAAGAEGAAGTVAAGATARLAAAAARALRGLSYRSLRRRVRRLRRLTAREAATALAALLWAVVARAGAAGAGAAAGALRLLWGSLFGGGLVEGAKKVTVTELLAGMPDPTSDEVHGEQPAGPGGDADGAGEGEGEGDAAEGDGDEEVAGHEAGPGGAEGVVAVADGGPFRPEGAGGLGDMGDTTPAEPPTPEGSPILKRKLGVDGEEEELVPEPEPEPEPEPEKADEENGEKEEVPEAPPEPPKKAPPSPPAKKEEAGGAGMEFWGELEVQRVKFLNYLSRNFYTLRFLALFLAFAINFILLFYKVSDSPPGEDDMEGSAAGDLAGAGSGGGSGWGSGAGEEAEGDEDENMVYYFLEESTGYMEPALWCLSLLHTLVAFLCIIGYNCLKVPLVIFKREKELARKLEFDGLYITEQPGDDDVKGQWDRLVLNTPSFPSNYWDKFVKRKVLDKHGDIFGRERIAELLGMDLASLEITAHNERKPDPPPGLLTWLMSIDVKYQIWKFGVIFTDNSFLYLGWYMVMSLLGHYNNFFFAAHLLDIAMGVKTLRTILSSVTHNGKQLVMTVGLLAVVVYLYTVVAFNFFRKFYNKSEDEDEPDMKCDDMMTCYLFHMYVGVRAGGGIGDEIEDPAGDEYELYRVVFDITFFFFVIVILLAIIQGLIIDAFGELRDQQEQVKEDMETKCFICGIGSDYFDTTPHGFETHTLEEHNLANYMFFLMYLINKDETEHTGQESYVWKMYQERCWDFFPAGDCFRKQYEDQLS

Row | Kd (RyR1) [nM] | Kd [1] [nM] | Substance
1 | 100 | – | FKBP12 (from UniProt P62942)
2 | – | 2.6 | FKBP12 (from UniProt P62943)
